This note sets out measurements from patent US20250312499A1, “KISSPEPTIN RECEPTOR (KISS1R) TARGETED THERAPEUTICS AND USES THEREOF” (priority 2024, published 2025).

In this assay the target is human kisspeptin receptor (KISS1R) (human), Q969F8. In words: radioligand competition, hKISS1R membranes; legend: A is <10 nM. Background: Loss of bound radioactivity is the signal in a displacement assay; it reports binding, not function.

For orientation: Ki means a dissociation constant, usually derived from enzyme kinetics or from competition with a known ligand. Read a high Ki as a looser hold on the target.

Numbered stars: 1 amine (or outer) side, 2 acyl side, 3 side chain; on linkers, the order of the positions; unused ones are H or OH. Square brackets hold non-standard residues; d marks the D form. Ends that are not written are not given here. * marks the point of attachment. X2 = 4‑amino‑1‑((3-fluoro-4-methylbenzyl)glycyl)piperidine‑4‑carboxylic acid, Cc1ccc(CN(CC(=O)N2CCC(N[*:1])(C(=O)[*:2])CC2)[*:3])cc1F; X10 = 3‑(2-(2-(3-(4-iodophenyl)propanamido)ethoxy)ethoxy)propanoyl, O=C(CCc1ccc(I)cc1)NCCOCCOCCC(=O)*; X6 = 3‑(2-(2-(3-(p-tolyl)propanamido)ethoxy)ethoxy)propanoyl, Cc1ccc(CCC(=O)NCCOCCOCCC(=O)*)cc1; DOTA = O=C(O)CN1CCN(CC(=O)O)CCN(CC(=O)*)CCN(CC(=O)O)CC1; Butanoyl(4-(4-I-phenyl)) = O=C(CCCc1ccc(I)cc1)*; Api(1-amidino) = N=C(N)N1CCC(N)(C(=O)O)CC1; Phe(4-CN) = N#Cc1ccc(C[C@H](N)C(=O)O)cc1; HO(CH2CH2O)2CH2CH2CO = O=C(CCOCCOCCO)*; d2Nal = N[C@H](Cc1ccc2ccccc2c1)C(=O)O; Palmitoyl = CCCCCCCCCCCCCCCC(=O)*; d4Pal = N[C@H](Cc1ccncc1)C(=O)O; Cha = N[C@@H](CC1CCCCC1)C(=O)O; Lauroyl = CCCCCCCCCCCC(=O)*; Octanoyl = CCCCCCCC(=O)*; Ahx = NCCCCCC(=O)O; azaGly = NNC(=O)O; Sar = CNCC(=O)O

Chain of human kisspeptin receptor (KISS1R) (human), Q969F8 (Q969F8 whole entry): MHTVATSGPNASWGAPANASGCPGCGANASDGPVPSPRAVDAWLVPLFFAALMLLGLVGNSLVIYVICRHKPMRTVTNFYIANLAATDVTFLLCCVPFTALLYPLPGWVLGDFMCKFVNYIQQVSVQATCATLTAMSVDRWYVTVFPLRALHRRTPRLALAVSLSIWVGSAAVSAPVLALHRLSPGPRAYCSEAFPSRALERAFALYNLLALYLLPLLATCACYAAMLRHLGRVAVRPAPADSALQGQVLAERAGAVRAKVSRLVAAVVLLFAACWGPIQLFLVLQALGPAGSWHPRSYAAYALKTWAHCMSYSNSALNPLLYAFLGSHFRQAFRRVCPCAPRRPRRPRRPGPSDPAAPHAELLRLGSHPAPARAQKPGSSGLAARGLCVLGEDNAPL

B1: Compound 365 (peptide)
peptide: {DOTA}-G[dY][d2Nal]NTF[azaGly]L[X2]W-NH2
SMILES: Cc1ccc(CNCC(=O)N2CCC(NC(=O)[C@H](CC(C)C)NC(=O)NNC(=O)[C@H](Cc3ccccc3)NC(=O)[C@@H](NC(=O)[C@H](CC(N)=O)NC(=O)[C@@H](Cc3ccc4ccccc4c3)NC(=O)[C@@H](Cc3ccc(O)cc3)NC(=O)CNC(=O)CN3CCN(CC(=O)O)CCN(CC(=O)O)CCN(CC(=O)O)CC3)[C@@H](C)O)(C(=O)N[C@@H](Cc3c[nH]c4ccccc34)C(N)=O)CC2)cc1F
In the case of B1, the inhibition constant (Ki) was under 0.01 µM.

B2: Compound 336 (peptide)
peptide: {DOTA-Ahx}-[dK](Butanoyl(4-(4-I-phenyl)))[dY][d2Nal]NTF[azaGly]L[Api(1-amidino)]W-NH2
SMILES: CC(C)C[C@H](NC(=O)NNC(=O)[C@H](Cc1ccccc1)NC(=O)[C@@H](NC(=O)[C@H](CC(N)=O)NC(=O)[C@@H](Cc1ccc2ccccc2c1)NC(=O)[C@@H](Cc1ccc(O)cc1)NC(=O)[C@@H](CCCCNC(=O)CCCc1ccc(I)cc1)NC(=O)CCCCCNC(=O)CN1CCN(CC(=O)O)CCN(CC(=O)O)CCN(CC(=O)O)CC1)[C@@H](C)O)C(=O)NC1(C(=O)N[C@@H](Cc2c[nH]c3ccccc23)C(N)=O)CCN(C(=N)N)CC1
Molecule B2 came in with an inhibitory constant (Ki) of under 0.01 µM.

B3: Compound 333 (peptide)
peptide: X6-[dY]K(DOTA)NTF[azaGly]L[Api(1-amidino)][Phe(4-CN)]-NH2
SMILES: Cc1ccc(CCC(=O)NCCOCCOCCC(=O)N[C@H](Cc2ccc(O)cc2)C(=O)N[C@@H](CCCCNC(=O)CN2CCN(CC(=O)O)CCN(CC(=O)O)CCN(CC(=O)O)CC2)C(=O)N[C@@H](CC(N)=O)C(=O)N[C@H](C(=O)N[C@@H](Cc2ccccc2)C(=O)NNC(=O)N[C@@H](CC(C)C)C(=O)NC2(C(=O)N[C@@H](Cc3ccc(C#N)cc3)C(N)=O)CCN(C(=N)N)CC2)[C@@H](C)O)cc1
As to B3, the Ki was under 0.01 µM.

B4: Compound 334 (peptide)
peptide: X10-[dY][dK](DOTA)NTF[azaGly]L[Api(1-amidino)]W-NH2
SMILES: CC(C)C[C@H](NC(=O)NNC(=O)[C@H](Cc1ccccc1)NC(=O)[C@@H](NC(=O)[C@H](CC(N)=O)NC(=O)[C@@H](CCCCNC(=O)CN1CCN(CC(=O)O)CCN(CC(=O)O)CCN(CC(=O)O)CC1)NC(=O)[C@@H](Cc1ccc(O)cc1)NC(=O)CCOCCOCCNC(=O)CCc1ccc(I)cc1)[C@@H](C)O)C(=O)NC1(C(=O)N[C@@H](Cc2c[nH]c3ccccc23)C(N)=O)CCN(C(=N)N)CC1
Turning to B4, the Ki was under 0.01 µM.
With {1‑(3-fluoro-4-methylphenyl)‑4‑oxo‑8,11‑dioxa‑2,5‑diazatetradecan‑14‑oyl}-[dY]K(DOTA)NTF[azaGly]L[4‑amino‑1‑carbamimidoylpiperidine‑4‑carboxylic acid(Sarcosine)][dW]-NH2 [Compound 359] the figure was under 0.01 µM.

B5: Compound 17 (peptide)
peptide: {DOTA}-[Sar][Sar]F[azaGly]L[X2]W-NH2
SMILES: Cc1ccc(CNCC(=O)N2CCC(NC(=O)[C@H](CC(C)C)NC(=O)NNC(=O)[C@H](Cc3ccccc3)NC(=O)CN(C)C(=O)CN(C)C(=O)CN3CCN(CC(=O)O)CCN(CC(=O)O)CCN(CC(=O)O)CC3)(C(=O)N[C@@H](Cc3c[nH]c4ccccc34)C(N)=O)CC2)cc1F
Regarding B5, the Ki is under 0.01 µM.

B6: Compound 331 (peptide)
peptide: Lauroyl-[dY]K(DOTA)NTF[azaGly]L[Api(1-amidino)]Y-NH2
SMILES: CCCCCCCCCCCC(=O)N[C@H](Cc1ccc(O)cc1)C(=O)N[C@@H](CCCCNC(=O)CN1CCN(CC(=O)O)CCN(CC(=O)O)CCN(CC(=O)O)CC1)C(=O)N[C@@H](CC(N)=O)C(=O)N[C@H](C(=O)N[C@@H](Cc1ccccc1)C(=O)NNC(=O)N[C@@H](CC(C)C)C(=O)NC1(C(=O)N[C@@H](Cc2ccc(O)cc2)C(N)=O)CCN(C(=N)N)CC1)[C@@H](C)O
In the case of B6, the Ki is under 0.01 µM.

B7: Compound 366 (peptide)
peptide: {DOTA-Ahx}-[dY][dW]NTF[azaGly]L[X2]Y-NH2
SMILES: Cc1ccc(CNCC(=O)N2CCC(NC(=O)[C@H](CC(C)C)NC(=O)NNC(=O)[C@H](Cc3ccccc3)NC(=O)[C@@H](NC(=O)[C@H](CC(N)=O)NC(=O)[C@@H](Cc3c[nH]c4ccccc34)NC(=O)[C@@H](Cc3ccc(O)cc3)NC(=O)CCCCCNC(=O)CN3CCN(CC(=O)O)CCN(CC(=O)O)CCN(CC(=O)O)CC3)[C@@H](C)O)(C(=O)N[C@@H](Cc3ccc(O)cc3)C(N)=O)CC2)cc1F
On to B7, for which the Ki is under 0.01 µM.

B8: Compound 338 (peptide)
peptide: X6-[dY][dK](DOTA)NTF[azaGly]L[Api(1-amidino)]W-NH2
SMILES: Cc1ccc(CCC(=O)NCCOCCOCCC(=O)N[C@H](Cc2ccc(O)cc2)C(=O)N[C@H](CCCCNC(=O)CN2CCN(CC(=O)O)CCN(CC(=O)O)CCN(CC(=O)O)CC2)C(=O)N[C@@H](CC(N)=O)C(=O)N[C@H](C(=O)N[C@@H](Cc2ccccc2)C(=O)NNC(=O)N[C@@H](CC(C)C)C(=O)NC2(C(=O)N[C@@H](Cc3c[nH]c4ccccc34)C(N)=O)CCN(C(=N)N)CC2)[C@@H](C)O)cc1
Consider B8, for which the Ki was under 0.01 µM.
Under Octanoyl-[dY][dK](DOTA)NTF[azaGly]L[4‑amino‑1‑carbamimidoylpiperidine‑4‑carboxylic acid(Sarcosine)]W-NH2 [Compound 354] stands under 0.01 µM; under Octanoyl-[dY][dK](DOTA)NT[Cha][azaGly]L[4‑amino‑1‑carbamimidoylpiperidine‑4‑carboxylic acid(Sarcosine)][dW]-NH2 [Compound 355], under 0.01 µM.
Under X6-[dY]K(DOTA)NT[Cha][azaGly]L[4‑amino‑1‑carbamimidoylpiperidine‑4‑carboxylic acid(Sarcosine)]W-NH2 [Compound 357] stands under 0.01 µM.

B9: Compound 330 (peptide)
peptide: Palmitoyl-[dY]K(DOTA)NTF[azaGly]L[Api(1-amidino)]Y-NH2
SMILES: CCCCCCCCCCCCCCCC(=O)N[C@H](Cc1ccc(O)cc1)C(=O)N[C@@H](CCCCNC(=O)CN1CCN(CC(=O)O)CCN(CC(=O)O)CCN(CC(=O)O)CC1)C(=O)N[C@@H](CC(N)=O)C(=O)N[C@H](C(=O)N[C@@H](Cc1ccccc1)C(=O)NNC(=O)N[C@@H](CC(C)C)C(=O)NC1(C(=O)N[C@@H](Cc2ccc(O)cc2)C(N)=O)CCN(C(=N)N)CC1)[C@@H](C)O
Molecule B9 showed a Ki of under 0.01 µM.

B10: Compound 329 (peptide)
peptide: Lauroyl-[dY]K(DOTA)NTF[azaGly]L[Api(1-amidino)]W-NH2
SMILES: CCCCCCCCCCCC(=O)N[C@H](Cc1ccc(O)cc1)C(=O)N[C@@H](CCCCNC(=O)CN1CCN(CC(=O)O)CCN(CC(=O)O)CCN(CC(=O)O)CC1)C(=O)N[C@@H](CC(N)=O)C(=O)N[C@H](C(=O)N[C@@H](Cc1ccccc1)C(=O)NNC(=O)N[C@@H](CC(C)C)C(=O)NC1(C(=O)N[C@@H](Cc2c[nH]c3ccccc23)C(N)=O)CCN(C(=N)N)CC1)[C@@H](C)O
In turn, B10 displayed an inhibitory constant (Ki) of under 0.01 µM.
Under {DOTA-Ahx}-[dK](4‑(p-tolyl)butanoyl)[dY][d2Nal]NTF[azaGly]L[Api(1-amidino)]W-NH2 [Compound 335] stands under 0.01 µM; under X6-[dY][dK](DOTA)NT[Cha][azaGly]L[4‑amino‑1‑carbamimidoylpiperidine‑4‑carboxylic acid(Sarcosine)][dW]-NH2 [Compound 358], under 0.01 µM; under X6-[dY]K(DOTA)NT[Cha][azaGly]L[4‑amino‑1‑carbamimidoylpiperidine‑4‑carboxylic acid(Sarcosine)][dW]-NH2 [Compound 356], under 0.01 µM.

B11: Compound 379 (peptide)
peptide: {HO(CH2CH2O)2CH2CH2CO}-[dY]K(DOTA)NTF[azaGly]L[X2]W-NH2
SMILES: Cc1ccc(CNCC(=O)N2CCC(NC(=O)[C@H](CC(C)C)NC(=O)NNC(=O)[C@H](Cc3ccccc3)NC(=O)[C@@H](NC(=O)[C@H](CC(N)=O)NC(=O)[C@H](CCCCNC(=O)CN3CCN(CC(=O)O)CCN(CC(=O)O)CCN(CC(=O)O)CC3)NC(=O)[C@@H](Cc3ccc(O)cc3)NC(=O)CCOCCOCCO)[C@@H](C)O)(C(=O)N[C@@H](Cc3c[nH]c4ccccc34)C(N)=O)CC2)cc1F
B11 showed a Ki of under 0.01 µM.
With Octanoyl-[dY][dK](DOTA)NTF[azaGly]L[4‑amino‑1‑carbamimidoylpiperidine‑4‑carboxylic acid(Sarcosine)][dW]-NH2 [Compound 353] the figure was under 0.01 µM.

B12: Compound 332 (peptide)
peptide: Octanoyl-[dY]K(DOTA)NTF[azaGly]L[Api(1-amidino)]Y-NH2
SMILES: CCCCCCCC(=O)N[C@H](Cc1ccc(O)cc1)C(=O)N[C@@H](CCCCNC(=O)CN1CCN(CC(=O)O)CCN(CC(=O)O)CCN(CC(=O)O)CC1)C(=O)N[C@@H](CC(N)=O)C(=O)N[C@H](C(=O)N[C@@H](Cc1ccccc1)C(=O)NNC(=O)N[C@@H](CC(C)C)C(=O)NC1(C(=O)N[C@@H](Cc2ccc(O)cc2)C(N)=O)CCN(C(=N)N)CC1)[C@@H](C)O
Regarding B12, the Ki was under 0.01 µM.
Under {DOTA-NH‑PEG2‑propanoyl}-[dY][d4Pal]NTF[azaGly]L[X2]W-NH2 [Compound 368] stands under 0.01 µM; under [N‑(3-fluoro-4-methylbenzyl)glycine][dY]K(DOTA)NTF[azaGly]L[4‑amino‑1‑carbamimidoylpiperidine‑4‑carboxylic acid(Sarcosine)][dW]-NH2 [Compound 360], under 0.01 µM.
